The text below walks through data of US20250134019A1, “TRIKETONE DIOXYGENASE VARIANTS FOR HERBICIDE TOLERANCE” (Monsanto Technology LLC, priority 2022, published 2025).

In series [1] the test system is transgenic soybean plants. Description: Response of R0 soybean plants transformed with Round 2 TDO variants to mesotrione. Format: in vivo. The following applies: same expression elements; Os.TDO control failed transformation in this experiment. The text has this:
The next set of experiments was focused on determining if the balance between improved enzyme stability could outweigh a reduction in activity observed at optimal temperatures in soybean plants. […] To test this hypothesis, the eight variants from Round 2 biochemical analysis described in the preceding paragraph were transformed into soybean through Agrobacterium-mediated transformation, along with three controls. One of the controls (TDO_9) was a variant from the high-throughput screens that had poor activity. Two other controls were the D08 variant and the Os.TDO. R0 transgenic soybean plants were sprayed with the mesotrione herbicide to screen for herbicide tolerance. […] These included the Os.TDO control, the D08 variant and one Round 2 variant. The plants were scored for percent injury as described in the previous examples.

Series [2] is described as follows: Specific activity of purified TDO proteins, second hydroxylation of mesotrione. Format: biochemical. The following applies: purified His6-tagged protein from E. coli, FIG. 8. The source says: Activity was expressed as nmol/min/mg protein and was the mean of three separate assays on the same enzyme sample (technical reps).
To test the hypothesis, the four amino acids of sorghum TDO corresponding to amino acid positions 230, 301, 332, and 335 in rice TDO were replaced with those of rice TDO. The corn, rice, sorghum, and the modified sorghum TDO genes were cloned into a pET28 vector for E. coli expression with His6 tag in the N-terminus. Subsequently, the proteins were expressed and purified by affinity chromatography. BL21-CodonPlus (DE3)-RIPL E. coli cells (Stratagene) were used for expression. Cells transformed with expression vector were grown in autoinduction media (AIM) supplemented with 100 μg mL-1 kanamycin and 34 μg mL-1 chloramphenicol.
TDO proteins used in this study were expressed in AIM cells using an auto-induction system as described by Studier (2014). Briefly, the recombinant cultures were grown at 37° C. for 3 hours and then 20° C. for one or two days. Cells were harvested by centrifugation and frozen at −80° C. The pellet was resuspended in lysis buffer (Bper and Yper [Pierce] with ratio 3 to 1, 25 mM Tris-HCl, 300 mM NaCl, 10 mM imidazole, pH 8.0). 150 mM ferric ammonium citrate (1000X) was added to the lysate to a final concentration of 150 µM and incubated on ice for 20 minutes. The lysate was centrifuged to clarify the supernatant. Clear supernatant was loaded onto a 5 mL Ni column connected to AKTA Express (GE Healthcare). […] Protein concentrations were determined spectrophotometrically based on their calculated molar absorption extinction coefficients at 280 nm.
TDO activity was measured by the second hydroxylation of mesotrione. For routine activity measurements of TDO and determining the kinetic properties of the second hydroxylation, the continuous change in A330, which is specific to the second hydroxylation and subsequent non-enzymatic water removal (i.e. the conversion of hydroxy-mesotrione to oxy-mesotrione), was monitored. […] The reaction proceeded until the maximum A330 was obtained (usually 20-120 minutes depending upon the concentration of mesotrione) and the linear portion of the curve was determined by visual inspection. […]
For the activity calculation, aliquots of the reaction were removed at various time points during the reaction and heated at 95° C. to halt the reaction. The reaction mixtures were analyzed by HPLC and mass spectrophotometry. By product conversation followed by peak integration on HPLC, a linear plot was obtained and the extinction co-efficient delta between the substrate (mesotrione) and the second product (oxy-mesotrione) was obtained according to the equation ΔA330=(εp-εs)*bΔp where ΔA330 is the change of absorbance at 330 nm and b is the light path.

B1: Os.TDO: TDO from Oryza sativa (HIS1), SEQ ID NO:2, polynucleotide codon optimized for dicot expression (protein, listed as Oryza sativa)
chain: MADESWRAPAIVQELAAAGVEEPPSRYLLREKDRSDVKLVAAELPEPLPVVDLSRLDGAEEATKLRVALQNWGFFLLTNHGVEASLMDSVMNLSREFFNQPIERKQKFSNLIDGKNFQIQGYGTDRVVTQDQILDWSDRLHLRVEPKEEQDLAFWPDHPESFRDVLNKYASGTKRIRDDIIQAMAKLLELDEDYFLDRLNEAPAFARFNYYPPCPRPDLVFGIRPHSDGTLLTILLVDKDVSGLQVQRDGKWSNVEATPHTLLINLGDTMEVMCNGIFRSPVHRVVTNAEKERISLAMLYSVNDEKDIEPAAGLLDENRPARYRKVSVEEFRAGIFGKFSRGERYIDSLRI
Take B1: the “typical injury rating for R0 soybean” value in series [1] is on record as “high 20% to low 30%”. In series [2], the “specific activity of the second hydroxylation” value is given as “highest activity”.
